Experimental data reported in patent publication US20130065819.

Columns and labels:
[1] = biological target: N-terminal FLAG tagged TOE1 mutant D195A
[2] = biological target: N-terminal FLAG tagged TOE1 mutant D363A
[3] = biological target: human TOE1 (Target of Egr1)
[4] = biological target: TOE1 mutated at the ExPASy-predicted caspase-1 cleavage site FTAD (position 214-217)
[5] = biological target: N-terminal FLAG tagged TOE1 mutant D282A
[6] = biological target: N-terminal FLAG tagged TOE1 mutant D373A

B1: recombinant caspase-1 (Calbiochem) (protein)
chain: NPAMPTSSGSEGNVKLCSLEEAQRIWKQKSAEIYPIMDKSSRTRLALIICNEEFDSIPRRTGAEVDITGMTMLLQNLGYSVDVKKNLTASDMTTELEAFAHRPEHKTSDSTFLVFMSHGIREGICGKKHSEQVPDILQLNAIFNMLNTKNCPSLKDKPKVIIIQACRGDSPGVVWFKDSVGVSGNLSLPTTEEFEDDAIKKAHIEKDFIAFCSSTPDNVSWRHPTMGSVFIGRLIEHMQEYACSCDVEEIFRKVRFSFEQPDGRAQMPTTERVTLTRCFYLFPGH
Q: How did the “in vitro caspase-1 cleavage of immunoprecipitated mutant, Western blot” value [1] turn out when B1 was run?
A: The value was “two of these mutations were found to prevent the appearance of a cleavage product of TOE1 upon incubation with caspase-1. These consisted of the D195 and D282 residues within the sites GLID and DIHD respectively”.

Q: What about the “in vitro caspase-1 cleavage of immunoprecipitated mutant, Western blot” value [2] of the same protein?
A: Its value is “caspase-1 cleaves TOE1 at residues 363 and 373 as evidenced by the lack of a 17 kDa fragment in the TOE1 mutants containing an alanine at residues 363 and 373”.

Q: What about the “in vitro digestion of immunoprecipitated TOE1 with recombinant caspase-1, Western blot” value [3] of the same protein?
A: Its value is “We found that TOE1 was indeed processed by caspase-1, and generated multiple cleaved forms”.

Q: What about the “in vitro caspase-1 cleavage of mutant, Western blot” value [4] of the same protein?
A: The value was “when the caspase-1 cleavage site predicted using the ExPASy software was mutated (FTAD), in vitro cleavage was maintained”.

Q: What about the “in vitro caspase-1 cleavage of immunoprecipitated mutant, Western blot” value [5] of the same protein?
A: Its value is “two of these mutations were found to prevent the appearance of a cleavage product of TOE1 upon incubation with caspase-1. These consisted of the D195 and D282 residues within the sites GLID and DIHD respectively”.

Q: What about the “in vitro caspase-1 cleavage of immunoprecipitated mutant, Western blot” value [6] of the same protein?
A: Its value is “caspase-1 cleaves TOE1 at residues 363 and 373 as evidenced by the lack of a 17 kDa fragment in the TOE1 mutants containing an alanine at residues 363 and 373”.
